These results are taken from the RNAGym collection of RNA variant scans (doi:10.1073/pnas.2313332121).

The labels stand for the following.
B1: TPR t1 (parent)
chain: GACCAAUCUGCCCUCAGAGCUCGAGAACAUCUUCGGAUGCAGAGGAGGCAGGCUUCGGUGGCGCGAUAGCGCCAACGUCCUCAACCUCCAAUGCAUCCCACCACAUGAUGAUGCCUGAAGAGCCUUGGUUUUUUG

In the series the parent is B1. Kind of series: polymerase ribozyme fitness, log enrichment relative to wild type (log ratio); higher = more active; in vitro selection for triplet polymerase activity. In short, it runs like this: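 Input and output libraries were sequenced on Illumina after a single in vitro selection round, run in triplicate on PCR-built, transcribed mutant libraries of each subunit of a heterodimeric triplet polymerase ribozyme. Selection annealed libraries to a biotinylated primer, the partner subunit and triplets, incubated them frozen at −7 °C, then gel-excised extended constructs for streptavidin-bead capture and RT-PCR. Genotypes with ≥10 input reads and ≥1 read per output were kept. Fitness is the logarithm, taken in base 2, of genotype enrichment divided by wild-type enrichment, using inverse-variance-weighted replicate averages.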
Regarding GACCAAUCUGCGCUCAGAGCUCGAGAACAUCUUCGGACGCAGAGGAGGCAGGCUUCGGUGGCGCGAUAUCGCCAACGUCCUCAACCUCCAAUGCAUCCCACCACAUGAUGAUGCCUGAAGAGACUUGGUUUUUUG, the “polymerase ribozyme fitness (log ratio)” value came to 1.35.
The result for GACCAAUCUGCGCUCAGAGCUCGAGAACAUCUUCGGAUGCAGAGGAGGCAGGCUUCGGUGGCGCGAUAGCGCCAACGCCCUCAACCUCCAAUGCAUCCCACCACAUGAUGAUGCCUGAAGAGCCAUGGUUUUUUG reads -0.607; that for GACCAAUCUGCGCCCAGAGCUCGAGAACAUCUUCGGAUGCAGAGGAGGCAGGCUUCGGUGGCGCGAUAGCGCCAACGUCCUCAAUUUCCAAUGCAUCCCACCACAUGAUGAUGCCUGAAGAGCCUUGGUUUUUUG, -1.22; that for GACCAAUCUGCGCUCAGAGCUCGAGAACAUCUUCGGAUGCAGAGGAGGCAGGCUUCGGUGGCGCGAUAGCGCCAACGUCCUCAACCUCCAAUGCAUCCCACCACAUGAUGAAGCCUGAAGAGCCUUGGUUUUUUG, 1.99.
As for GACCAAUCUGCGCUCAGAGCACGAGAACAUUUUCGGAUGCAGAGGAGGCAGGCUUCGGUCGCGCGAUAGCGCCAACGUCCUCAACCCCCAAUGCGUCCCACCACAUGAUGAUGCCUGAAUAGCCUUGGUUUUAUG, the figure is -4.31.
The result for GACCAAUCUGCGCUCAGAGCUCGAGAACAUCUUCGGAUGCAGAGGAGGCAGGCUUCGGUGGCGCGAUAGCGCCAACGUCCUCAACCUCCAAUGCAUCCCACCACAUGAUGAUGCCUGAAGAGCCUUGGUUUUUUU reads -0.927; that for GACCAAUCUGCGCUCAGAGCUCGAGAACAUCUUCGGAUGCAGAGGAGGCAGGCUUCGGUGGCGCGAUAGCGCCAACGCCCUCAACCUCCAAUGCAUCCCACCACAUGAUGUUGCCUGAAGAGCCUUGGUUUUUUG, -3.23; that for GACCAAUCUGCUCUCAGAGCUCGAGGACAUCUUCGGAUGCAGAGGAGGCAGGCUUCGGUGGCGAGAUAGCGCUAACGUCCUCAACCUCCAAUGCAUCCCACCACAUGAUCAUGCCUGAAGAGCCUUGGUUUUUUG, -5.13.
Turning to GACCAAUCUGCUCUCAGUCCUCGAGAACAUCUUCAGAUGCAGAGGAGACAGGCUUCGGUGGCGCGAUAGCGACAACGUCCUCAACCUCCAAUGCAUCCCACCACAUGAUGAAGCCUGAAGAGCCUUGGUUUUUUG, the “polymerase ribozyme fitness (log ratio)” value was -6.64.
For the variant GACCAAUCUGCGCUCAGAGCCCGAGAACUUCUUCGGAUGCAGAGGAGGCAGGCUUCGGUGACGCGAUAGCGCCAACGUCCUCAACCUCCAAUGCAUCCCACCACAUGAUGAUGCCUGAAGAGUCUUGGUUAUUUG, the “polymerase ribozyme fitness (log ratio)” value was -2.39.
The result for GACCAAUCUGCGCUCAGAGCUCGAGAACAUCUUCGGAUGCAGAGGAGGCAGGCUUCGGUGGCGCGAUAGCGCCAACGCCCUCAACCUCCAAUGCAUCCCACCACAUGAUGAUGCCUGAAGAGCCUUGGUUUUUUG reads -0.718.
As for GACCAAUCUGCUCUCAGAGCUCGGGAACAUCUUCGAAUGCAGAGGAGGCAGGCUUCGGUGGCGCGAUAGCGCCAACGUCCUCAACCUCCAAUGCAUCCCACCACAUGAUGAUGCCUGAAGAGCCUUGGUUUUUUG, the figure is -1.4.
The result for GACCAAUCUGCUCUCGGAGCUCGAGAAUAUCUUCGGAUGCAGAGGCGGCAGGCUUCGGUGGCGCGAUAGCGCCAACGUCCUCAACCUCCAAUGCAUCCCACCACAUGAUGAUGCCUGAACAGCCUUGGUUUUUUG reads -1.6; that for GACCAAUCUGCGCUCAGAGCUCGAGAACAUCUUCGGAUGCAGAGGAGGCAGGCUUCGGUGGCGCGAUAGCGCCAACGUCCUCAACCCCCAAUGCAUCCCACCACAUGAUGAUGCCUGAAGAGCCUUGGUUUUUUG, 0.621; that for GACCAAUCUGCGCUCAGAGCUCGAGAACAUCAUCGGAUGCAGAGGAGGCAGGCUUCGGUGGCGCGAUAGCGCCAACGUCCUCAACCUCCAAUGCAUCCCACCACAUGAUGAUGCCUGAAGAGCCUUGGUUUUUUG, -3.25.
GACCAAUCUGCGCUCAGAGCUCGAGAACAUCGUCGGAUGCAGAGGAGGCAGGCUUCGGUGGCGCGAUAGCGCCAACGUCCUCAACCUCCAAUGCAUCCCACCACAUGAUGAUGCCUGAAGAGCCUUGGUUUUUUG: the “polymerase ribozyme fitness (log ratio)” value is -6.87.
The result for GACCAAUCUGCGCUCAGAGCUCGAGAACAUCUUCGGAUGCAGAGGAGGCAGGCUAGGGUGGCACGAUAGCGCCAACGUCCCCAACCUCCAAUGCAUCCCACCACAUGAUGAUGCCUGAAGAGCCUUGGUUUUUUG reads -2.01.
Consider GACCAAUCUGCGCUCAGAGCUCGAGAACAUCUUCGGAUGCAGAGGAGGCAGGCUUCGGUGGCGCGAUAGCGCCAACGUCCUCAACCUCCAAUGCAUCCCACCACAUGAUGAUGCCUGAAGAGCCUUGGUUUAUUG, for which the “polymerase ribozyme fitness (log ratio)” value was -0.729.
As for GACCAAUCUGCUCUCAGAGCUCGAGUACAUCUUCGGAUGCAGAGGAGGCAGGCUUCGGUGGCGCGAUAGCGCCAACGUCCUCAACCUCCAAUGCAUCCCACCACAUGAUGAUGCCUGAAGAGCCUUGGUUUUUUG, the figure is -2.07; as for GACCAAUCUGCGCUCAGAGCUCGAGAACACCUUCGGAUGCAGAGGAGGCAGGCUUCGGUGGCGCGAUAGAGCCAACGUCCUCAACCUCCAAUGCAUCCCACCACAUGAUGAUGCCUGAAGAGCCUUGGUUUUUUG, -4.46; as for GACCAAUCUGCUCUCUGAGCUGGAGAACAUCUUCGGAUGCAGAGGAGGCAGGCUUCGGUGGCGCGAUAGCGCCAACGUCCUCAACCUCCAAUGCAUCCUACCACAUGAUGAUGCCUGAAGAGCCUUGGUUUUUUG, -3.39.
